Laboratory results reported in PMC3474958, “pH-sensitive Self-associations of the N-terminal Domain of NBCe1-A Suggest a Compact Conformation under Acidic Intracellular Conditions” (Protein and Peptide Letters, 2012).

B1: cytoplasmic, N-terminal domain of NBCe1-A (residues 1 to 362) (domain or fragment, human, UniProt Q9Y6R1-2 1-362, looked up)
chain: MSTENVEGKPSNLGERGRARSSTFLRVVQPMFNHSIFTSAVSPAAERIRFILGEEDDSPAPPQLFTELDELLAVDGQEMEWKETARWIKFEEKVEQGGERWSKPHVATLSLHSLFELRTCMEKGSIMLDREASSLPQLVEMIVDHQIETGLLKPELKDKVTYTLLRKHRHQTKKSNLRSLADIGKTVSSASRMFTNPDNGSPAMTHRNLTSSSLNDISDKPEKDQLKNKFMKKLPRDAEASNVLVGEVDFLDTPFIAFVRLQQAVMLGALTEVPVPTRFLFILLGPKGKAKSYHEIGRAIATLMSDEVFHDIAYKAKDRHDLIAGIDEFLDEVIVLPPGEWDPAIRIEPPKSLPSSDKRKNM
notes: NBCe1-A, sodium-bicarbonate cotransporter variant 1A (SLC4 family), cytoplasmic N-terminal domain, residues 1 to 362; theoretical mass of the monomer 40.6 kDa, of the dimer 81.2 kDa; Exists in a concentration- and pH-dependent equilibrium of monomer, dimer and higher-order clusters; also called NtNBCe1-A; NtNBCe1

Tests used:
[1] = molecular target: NtNBCe1-A (cytoplasmic N-terminal domain of the electrogenic Na/HCO3 cotransporter NBCe1-A, SLC4A4) (UniProt Q9Y6R1); assay: Dynamic light scattering (DLS), batch mode; conditions: pH slightly acidic (6.5 by the Figure 1 caption and Discussion); 150 mM NaCl; 50mM Tris at every pH
NtNBCe1-A (cytoplasmic N-terminal domain of the electrogenic Na/HCO3 cotransporter NBCe1-A, SLC4A4) (UniProt Q9Y6R1), sequence (Q9Y6R1 whole entry, the tested form may be a part): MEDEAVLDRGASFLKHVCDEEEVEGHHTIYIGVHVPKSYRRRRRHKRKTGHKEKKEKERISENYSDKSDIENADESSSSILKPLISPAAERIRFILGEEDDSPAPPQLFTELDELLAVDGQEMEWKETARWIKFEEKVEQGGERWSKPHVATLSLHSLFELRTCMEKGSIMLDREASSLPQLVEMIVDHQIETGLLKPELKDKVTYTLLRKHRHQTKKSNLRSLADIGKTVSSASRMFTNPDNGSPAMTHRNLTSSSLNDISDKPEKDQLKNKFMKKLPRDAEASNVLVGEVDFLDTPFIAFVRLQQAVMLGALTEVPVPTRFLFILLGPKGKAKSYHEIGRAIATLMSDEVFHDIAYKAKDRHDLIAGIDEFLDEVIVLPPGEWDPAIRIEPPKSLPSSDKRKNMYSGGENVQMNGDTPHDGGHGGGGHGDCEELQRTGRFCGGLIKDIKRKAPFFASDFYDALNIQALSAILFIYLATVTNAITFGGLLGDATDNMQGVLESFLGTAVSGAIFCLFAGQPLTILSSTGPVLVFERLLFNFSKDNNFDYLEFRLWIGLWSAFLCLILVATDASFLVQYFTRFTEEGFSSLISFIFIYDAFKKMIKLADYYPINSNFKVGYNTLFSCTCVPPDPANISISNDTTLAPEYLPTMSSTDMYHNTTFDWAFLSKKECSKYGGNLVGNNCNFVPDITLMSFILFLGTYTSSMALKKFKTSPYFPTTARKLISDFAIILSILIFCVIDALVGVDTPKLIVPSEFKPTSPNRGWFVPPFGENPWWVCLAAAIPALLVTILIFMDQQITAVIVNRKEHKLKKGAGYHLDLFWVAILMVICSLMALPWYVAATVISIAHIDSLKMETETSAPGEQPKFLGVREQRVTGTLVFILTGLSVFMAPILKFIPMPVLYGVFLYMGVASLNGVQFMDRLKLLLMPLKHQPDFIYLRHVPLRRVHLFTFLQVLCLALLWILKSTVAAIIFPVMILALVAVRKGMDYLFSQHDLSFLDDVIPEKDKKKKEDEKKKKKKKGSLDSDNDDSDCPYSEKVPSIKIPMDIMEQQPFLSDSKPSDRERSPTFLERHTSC

[2] = molecular target: NtNBCe1-A (cytoplasmic N-terminal domain of the electrogenic Na/HCO3 cotransporter NBCe1-A, SLC4A4) (UniProt Q9Y6R1+Q9Y6R1); assay: Dynamic light scattering (DLS), batch mode; conditions: pH 7.4; 150 mM NaCl; 50mM Tris at every pH
NtNBCe1-A (cytoplasmic N-terminal domain of the electrogenic Na/HCO3 cotransporter NBCe1-A, SLC4A4) (UniProt Q9Y6R1+Q9Y6R1), sequence (Q9Y6R1 whole entry, looked up, the tested form may be a part, one chain of several): as the sequence (Q9Y6R1 whole entry, the tested form may be a part) above

[3] = molecular target: NtNBCe1-A (cytoplasmic N-terminal domain of the electrogenic Na/HCO3 cotransporter NBCe1-A, SLC4A4) (UniProt Q9Y6R1); assay: Size-exclusion chromatography with multi-angle light scattering and refractive index detection (MALS-SEC); conditions: pH 11.5; 150mM NaCl; 50mM Tris at every pH analysed
[4] = molecular target: the molecule itself; assay: SEC-MALS; neutral pH, 0 mM against 10 mM bisulfite
[5] = molecular target: the molecule itself; assay: SEC-MALS; ~2 mg/ml (0.5 ml) on Superdex-200 HR 10/30; 50 mM Tris, 150 mM NaCl, 1 mM TCEP; neutral pH; monomer to dimer

| Molecule | average hydrodynamic radius (DLS) [1] | average hydrodynamic radius (DLS) [2] | average molar mass (MALS-SEC) [3] | fold increase of high-order self-associations with bisulfite against none [4] | stoichiometry N [5] |
| --- | --- | --- | --- | --- | --- |
| NtNBCe1-A (cytoplasmic N-terminal domain of the electrogenic Na/HCO3 cotransporter NBCe1-A, SLC4A4) | 4.6 nm (theoretical 4.2 nm for pure dimers); monodisperse, Pd < 10% | increase to 5.0 nm at neutral pH (theoretical 5.6 nm for pure tetramers), consistent with a small amount of dimer-dimer interactions | 42.6 kDa (theoretical monomer 40.6 kDa); monomer predominates | – | – |
| B1 | – | – | – | ~2 fold | 2 |
